Laboratory results as given in PMC8609903, “Novel Lung Targeting Cell Penetrating Peptides as Vectors for Delivery of Therapeutics” (Research Square, 2021).

Columns and labels:
[1] = tested on: SARS-CoV-2 (strain USA_WA1/2020); type: cell-based; details: concentrations of 2, 0.2, and 0.02 μM, human bronchial epithelial cells
wild-type CD1 mice = assay: Biodistribution time course of Cy5.5 labeled R11A, ex-vivo IVIS imaging; details: 5mg/Kg Cy5.5 labeled R11A intravenous, 15-360 minutes, n=3
Protocol: Mice were euthanized at the end of the circulation period, perfused and fixed as before, and multiple organs harvested and ex-vivo IVIS imaging performed immediately.
Wild-type, 6-week old, female CD1 mice were purchased from Charles Rivers. After at least 48 hours of acclimatization after arriving in the animal colony, mice were weighed and anesthetized with an intraperitoneal injection of a 1:1 cocktail of Ketamine:Xylazine at 1–2μL/gm body weight. […] At the end of circulation time, mice were euthanized using inhalational CO2 as per IACUC-approved protocol, chest cavity opened, right atrium nicked and 3–5ml of 4% formalin injected through the left ventricular apex to perfusion fix the animals. Various organs were harvested, rinsed once in PBS and placed on a petri dish to be imaged using IVIS (Perkin- Elmer – S5 instrument). All mice were imaged using identical instrument settings (stage position, exposure time, binning, F-stop etc.). […] All time-points were tested in at least triplicate (n=3).

[2] = tested on: human bronchial epithelial cells
[3] = tested on: Rat cardiomyoblast H9C2 cells; details: 10μM peptide, 30 minutes, 37°C, N-terminal Cy5.5, C-terminal amide, FACs, biological triplicates, p<0.001

CCC(CC)COC(=O)[C@H](C)N[P@](=O)(OC[C@H]1O[C@@](C#N)(c2ccc3c(N)ncnn23)[C@H](O)[C@@H]1O)Oc1ccccc1 [Remdesivir]
reduction of SARS-CoV-2 titers compared to virus controls [1]: statistically significant

APWHLSSQYSAT ({Cy5.5}-APWHLSSQYSAT-NH2) [R11A]
fluorescence in kidneys (wild-type CD1 mice): little fluorescence | fluorescence in liver (wild-type CD1 mice): decreased over time | uptake at 4°C [2]: very little uptake

APWHLSAQYSRT ({Cy5.5}-APWHLSAQYSRT-NH2) [S7A]
uptake at 4°C [2]: very little uptake | Cy5.5 intensities, fold higher [3]: ~3 fold
